Assay results as given in the supplement of paper PMC10724198.
± gives the standard deviation of the averaged measurements.

Test system: Saccharomyces cerevisiae
Assay: protein stability index of tFT-peptide fusion (C-terminal peptide) (PSI (0-1 scale)); higher = more stable (slower turnover)
Details: genetic background: wild type; temperature: 30 C
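Also: PSI is a weighted mean of sequencing reads over stability bins, variants kept only with over 10 reads, mCherry proximal and sfGFP distal, peptide attached via GGGS linker.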

| Sequence | protein stability index |
| --- | --- |
| GEDRLSPVGWDR | 0.702 ± 0.035 |
| GLVRGGWGTVGG | 0.805 ± 0.24 |
| CLVIDDPFLVPF | 0.6988 ± 0.001 |
| TDPLGDDSSESE | 0.672 ± 0.048 |
| GGGGMASRGGNK | 0.685 ± 0.027 |
| PGLRSQQLIAPI | 0.652 ± 0.069 |
| YHMNSSLLCLLW | 0.631 ± 0.032 |
| GEGTQGVSIGPR | 0.711 ± 0.015 |
| KEEAKRPQSNET | 0.706 ± 0.02 |
| KKKVEIKCRKRQ | 0.667 ± 0.0067 |
| LPWGGVVVGSMV | 0.73 ± 0.019 |
| HRPGYLTSSASD | 0.65 ± 0.062 |
| RSSPPPRHDPSP | 0.696 ± 0.088 |
| LPPPPPPPPPPP | 0.60887 ± 2.4e-05 |
| NRGKDEIMKRDK | 0.671 ± 0.066 |
| GGFNARVSPTRL | 0.709 ± 0.1 |
| GGRPRGLVAGAA | 0.657 ± 0.022 |
| VQWSRFRVGMAE | 0.848 ± 0.19 |
| AYTWVMTGAWLL | 0.586 ± 0.015 |
| SWVELCSQEVVI | 0.603 ± 0.01 |
| VSRGGWLKWDEG | 0.66 ± 0.028 |
| PLPVLFFFSACS | 0.661 ± 0.043 |
| RSPYSSLHNPLC | 0.706 ± 0.016 |
| AEQLALSQLSYV | 0.687 ± 0.0099 |
| PHLPPQPPSPPA | 0.716 ± 0.045 |
| ARPSPPAILVPS | 0.586 ± 0.017 |

| Sequence | protein stability index |
| --- | --- |
| PPPPPPPRPLTP | 0.68 ± 0.059 |
| ILSCLLRSSFQC | 0.606 ± 0.045 |
| YAGPCRRHSGGC | 0.679 ± 0.082 |
| AVGQGAGSWGWE | 0.691 ± 0.049 |
| AAHLLPSIHGYL | 0.669 ± 0.076 |
| HHCGGRVLGAGG | 0.7073 ± 0.0056 |
| FWDSCAVSLYLR | 0.632 ± 0.041 |
| FRPFLPPSRTFS | 0.676 ± 0.008 |
| THSLSCPPRNPP | 0.647 ± 0.07 |
| ARLPPPRPLPPP | 0.748 ± 0.13 |
| RWAQVAEGGEGR | 0.732 ± 0.099 |
| YSSLPPAFPNRS | 0.734 ± 0.1 |
| SRVGWSRLGPGL | 0.68 ± 0.022 |
| TEHRVGEKEPWH | 0.681 ± 0.018 |
| PGAVNRASDGEV | 0.6061 ± 0.005 |
| GTLRLLYLKTSK | 0.651 ± 0.009 |
| PLPPPPPLPLSP | 0.693 ± 0.07 |
| ALFCLLLPPPSP | 0.724 ± 0.008 |
| PSSPLPLSVPPL | 0.655 ± 0.11 |
| ALPPSFPRPFSF | 0.703 ± 0.036 |
| KKNYKNIEKKET | 0.658 ± 0.11 |
| PPAPTPSPSPPP | 0.68 ± 0.1 |
| SFASLSFDTASF | 0.675 ± 0.0086 |
| LMKSPGGTLTIR | 0.71 ± 0.053 |
| LLGRPILINRPL | 0.661 ± 0.0083 |
| YQSLVSIDLGFS | 0.745 ± 0.034 |

| Sequence | protein stability index |
| --- | --- |
| IRLSVPGLTCVS | 0.504 ± 0.0031 |
| GNRARRSGITRF | 0.809 ± 0.15 |
| SFPYPCFPPPPF | 0.78 ± 0.056 |
| RGCAPDRIPAPV | 0.645 ± 0.023 |
| GLGLASWGDLEL | 0.739 ± 0.039 |
| SHTVVFRVCTGS | 0.631 ± 0.087 |
| SYGWSQGPLSCW | 0.767 ± 0.01 |
| KKKANEMGKNRE | 0.715 ± 0.028 |
| ARPFPPLSPPPP | 0.655 ± 0.078 |
| SPLRHIPPLHTP | 0.686 ± 0.1 |
| IVVRAGGCSVGW | 0.695 ± 0.081 |
| PSCFNAPRHPPT | 0.749 ± 0.076 |
| LPAISSPIPPSL | 0.701 ± 0.048 |
| GAVYHGGMASVR | 0.746 ± 0.054 |
| PLLYSDRPSIFL | 0.663 ± 0.026 |
| DGCSWRSGLVWL | 0.69506 ± 0.00062 |
| FRASLFFVWLPS | 0.59 ± 0.085 |
| PPASPSPSLLSP | 0.6491 ± 0.0025 |
| GGGGGVGGVGRV | 0.668 ± 0.062 |
| PKTSTPPPTSPA | 0.675 ± 0.0073 |
| SRCYKETGKVRE | 0.736 ± 0.0071 |
| YVLITGSTIPDN | 0.694 ± 0.026 |
| AVYSDCARNITW | 0.714 ± 0.047 |
| RNRRKTLMETRS | 0.695 ± 0.082 |
| NFPEATPSNYKV | 0.737 ± 0.015 |
| RRMHLNMKEREL | 0.896 ± 0.054 |

| Sequence | protein stability index |
| --- | --- |
| RADAPPPTRPEA | 0.744 ± 0.011 |
| GADGARGVPGAG | 0.662 ± 0.018 |
| NRRCAPVHPGPD | 0.7217 ± 0.0036 |
| GCVGIGFSPGGG | 0.656 ± 0.014 |
| VGCSDFSAIVLD | 0.713 ± 0.069 |
| RREKGEARGRGG | 0.618 ± 0.013 |
| SPKGRVISRRQP | 0.602 ± 0.034 |
| PSLSSPQLLLTL | 0.685 ± 0.01 |
| RNNRQAREKKKQ | 0.701 ± 0.15 |
| RVHRSVVGYRRC | 0.611 ± 0.025 |
| PFSRIFSPLSLL | 0.68 ± 0.045 |
| LGALTPSIAGGP | 0.64 ± 0.01 |
| EEREKKWKGKGK | 0.718 ± 0.035 |
| GDGAGGGFGLVV | 0.724 ± 0.097 |
| LFFSIVSPPCGR | 0.748 ± 0.068 |
| KKKKMKKNKERK | 0.708 ± 0.049 |
| LLTTGGRWWRRP | 0.669 ± 0.03 |
| NMMTSVLEGGVG | 0.699 ± 0.16 |
| PPPPPPPLAPPL | 0.685 ± 0.021 |
| ACIWRCFDAAMG | 0.632 ± 0.019 |
| FFCDFFYLSSHF | 0.716 ± 0.019 |
| TPTPPPSFLHGS | 0.663 ± 0.046 |
| PFHCLPRPPCYW | 0.708 ± 0.14 |
| PPASLRRPRSYL | 0.748 ± 0.025 |
| GIARRSHSNETV | 0.766 ± 0.078 |
| TPVPIARLRESH | 0.709 ± 0.035 |

| Sequence | protein stability index |
| --- | --- |
| HRAPACEHDIKK | 0.705 ± 0.015 |
| QKEGGRENETRT | 0.6906 ± 0.0053 |
| YPLPPLFLPLLL | 0.675 ± 0.046 |
| PPLLALSASRVT | 0.698 ± 0.017 |
| KKWKKKNNKRNG | 0.707 ± 0.17 |
| LRLFCVLARSVV | 0.528 ± 0.018 |
| RGRGKRNDPEKR | 0.681 ± 0.036 |
| VGVGWAALRWYG | 0.6761 ± 0.0047 |
| LSGTLALVVFTR | 0.6464 ± 0.001 |
| GWCVGHSVLVVE | 0.618 ± 0.021 |
| SPLFLVIRLPST | 0.62 ± 0.055 |
| LSPCPPLRPLLS | 0.676 ± 0.081 |
| PLPPPPPPPSSP | 0.726 ± 0.011 |
| SGRCGGESNDAE | 0.626 ± 0.012 |
| WGGSSPHRTEPR | 0.666 ± 0.058 |
| SSLERVHVCPLE | 0.64 ± 0.079 |
| PLPPHPPPPRPL | 0.698 ± 0.035 |
| EGEGAGRWCGRG | 0.66 ± 0.051 |
| LYGASRCLVARS | 0.664 ± 0.0093 |
| RPPNPPPALPPL | 0.701 ± 0.056 |
| QSARMRRKSNLP | 0.674 ± 0.028 |
| GKLRGTGGRAGE | 0.669 ± 0.012 |
| SPRHNALHFTLV | 0.644 ± 0.032 |
| VSSSLPVHLSLS | 0.717 ± 0.037 |
| PPRPLPARRLSF | 0.753 ± 0.081 |
| RFLLNPPLRCPP | 0.747 ± 0.041 |

| Sequence | protein stability index |
| --- | --- |
| PGRLPPPFASFF | 0.687 ± 0.0091 |
| VYYDSVVSLSGA | 0.661 ± 0.079 |
| PPPPPSSRPLSN | 0.627 ± 0.079 |
| SGSLFVRIGGMG | 0.754 ± 0.094 |
| PPPRPGLPAPVP | 0.683 ± 0.05 |
| PRPPPLPPQTSS | 0.73 ± 0.1 |
| VIRQPSSKLWIQ | 0.6559 ± 0.0057 |
| GGVAADGGGGRG | 0.675 ± 0.043 |
| RTWDNTRDLDEL | 0.656 ± 0.019 |
| DKSYKTYSVKGQ | 0.6707 ± 0.0018 |
| SNRASVCKSGKR | 0.6768 ± 0.0017 |
| SLPSPIPPPSLL | 0.739 ± 0.29 |
| FFLLGRGVCLGA | 0.663 ± 0.054 |
| RCPQHCDLSVYV | 0.681 ± 0.021 |
| VRAGLAGGPGRV | 0.684 ± 0.024 |
| ERYKHKKMKNNE | 0.699 ± 0.097 |
| QSLITVETRIGS | 0.651 ± 0.045 |
| PPPPPPLLPPPA | 0.7302 ± 0.0037 |
| WARGGRVDDGGG | 0.62 ± 0.057 |
| LPATCFSPPSSS | 0.687 ± 0.057 |
| PSIMLSSLPPPP | 0.696 ± 0.065 |
| EWGDLDGRGEPR | 0.74 ± 0.0075 |
| GVPVVCGPPPFL | 0.748 ± 0.091 |
| LHLPFLPSLPHP | 0.727 ± 0.042 |
| SCRAIIDCMYNT | 0.611 ± 0.067 |
| LCSSASFFFSVL | 0.67 ± 0.059 |

| Sequence | protein stability index |
| --- | --- |
| PRSAAQSQMRRK | 0.711 ± 0.056 |
| CGTYPTFCGLGV | 0.68 ± 0.068 |
| ARPPLSHPRPPL | 0.788 ± 0.057 |
| TGRQQTCRIIIE | 0.6873 ± 0.00092 |
| TTLPFLLGSGGF | 0.677 ± 0.065 |
| GRWGGWGGRGCG | 0.696 ± 0.023 |
| CCFAGFAVWSVD | 0.7 ± 0.019 |
| RLVFDTGPPFIN | 0.657 ± 0.042 |
| PSSSLAPPPGRL | 0.572 ± 0.038 |
| EQNKQPEKETYN | 0.625 ± 0.076 |
| PASQPPTPPPRS | 0.675 ± 0.11 |
| VFSCPLLFASFS | 0.672 ± 0.041 |
| SFTFSFWRFSPR | 0.676 ± 0.019 |
| GGVECVRGTGGR | 0.659 ± 0.046 |
| DCAVNYVGRRRR | 0.702 ± 0.057 |
| IIRKQQAKKVEL | 0.681 ± 0.025 |
| LSLPRCPKGVAH | 0.672 ± 0.055 |
| KKRVHNRKEETE | 0.691 ± 0.091 |
| LQLFLWRVVAPV | 0.477 ± 0.038 |
| GRPTRRHRGRLV | 0.709 ± 0.028 |
| CLVDSSSFSLIF | 0.742 ± 0.065 |
| EFMRHAFTPLPT | 0.733 ± 0.041 |
| QNEKSKQCIKQT | 0.6759 ± 0.0019 |
| AISPLLPSFSPP | 0.665 ± 0.037 |
| PEGQRNRDAQSA | 0.7125 ± 0.0026 |
| AHNRQRPEPDAR | 0.636 ± 0.031 |

| Sequence | protein stability index |
| --- | --- |
| GRGWGGALGWCG | 0.668 ± 0.013 |
| TPSFTLNAYMLT | 0.693 ± 0.014 |
| PSPPAQSASLFF | 0.663 ± 0.02 |
| AGCSVVGRWCLW | 0.742 ± 0.1 |
| GIKTRTTRVRGE | 0.706 ± 0.018 |
| RRFQYLTENYQK | 0.6208 ± 0.0047 |
| PFALPPPPPLVP | 0.69 ± 0.0078 |
| DVYMWVVPNFTD | 0.729 ± 0.037 |
| REWDRRGRSHHF | 0.769 ± 0.069 |
| KREKAQEGQGGD | 0.709 ± 0.025 |
| INRDKLNRRKKL | 0.687 ± 0.038 |
| KAPCRVGARKGG | 0.688 ± 0.051 |
| LHPPLPRPPYPP | 0.66 ± 0.029 |
| LSYSLSSPRVFH | 0.7337 ± 0.0022 |
| GVSHKKGCPWLG | 0.641 ± 0.043 |
| RKSKRLDQSCTR | 0.703 ± 0.035 |
| YVFPYLLRAIPF | 0.601 ± 0.095 |
| AVCWGGSVGGVG | 0.69898 ± 0.00012 |
| PEMELEKRNQHN | 0.716 ± 0.015 |
| QRFVKIRGLEKI | 0.693 ± 0.026 |
